Test: soluble on expression in E. coli; label from the status in PepcDB or PDB records

Sequence	soluble on expression in E. coli
MRVVAFVPGSISDQILFFPTLDDLKRYYPDAQIDVIVESQSKAAYRLSKSVHEVLTFDYSDHNSLADWGNLVGTIRDREYDVAMTTGESWFIGLFLWLTGIPTRIGYKGKGAGFLTNTIRRNTSQYVAAMYHDLLKPVGIKTPCPELTANVPKPDIQWAQQEQKRLGIHETGYILIYGGSSHSSQIDGADTSYPIASWQQIIQDCQHKQPELPIVLIKEADDENFVRVLLESCSNLKITSPDDIGKLTAIISGASLMLSIENGPLQLAVAVQTYTIALLSSTDADKLLPKSDKFLAIKSHSGKTVDIPPPTVLEKIWGG	not soluble
MSLNTVYHSYQSLPNEGWGKSDTLSFQCPVTDSIPGTLRLFAEVRNRSEYPYRNLYLFIHENLLDSTVWRTDTIAVNLADSTGRWTGNGWGSIYQTAVFVKSVRPLHPGNYTVKIVHGMQDEKLTGLNDVGIRIEKQGEGHHHHHH	soluble
MGTKLSVSLEGASTPETAPRVDRPPTFDPQYGFERPRKVREMKATWEEMEQWKLKPAQRDYCAHHLISLMKCQTQNAPFAGHACDGERGAWDKCEYDDHIMRIKEFERERRLLQRQARKEATA	not soluble
MARAVHRSGLVALGIATALMASCAFAAKDVVVAVGSNFTTLDPYDANDTLSQAVAKSFYQGLFGLDKEMKLKNVLAESYTVSDDGITYTVKLREGIKFQDGTDFNAAAVKANLDRASDPANHLKRYNLYKNIAKTEAIDPTTVKITLKQPFSAFINILAHPATAMISPAALEKYGKEIGFYPVGTGPYELDTWNQTDFVKVKKFAGYWQPGLPKLDSITWRPVADNNTRAAMLQTGEAQFAFPIPYEQATLLEKNKNIELMASPSIMQRYISMNVTQKPFDNPKVREALNYAINRPALVKVAFAGYATPATGVVPPSIAYAQSYKPWPYDPVKARELLKEAGYPNGFSTTLWSSHNHSTAQKVLQFTQQQLAQVGIKAQVTAMDAGQRAAEVEGKGQKESGVRMFYTGWSASTGEADWALSPLFASQNWPPTLFNTAFYSNKQVDDFLAQALKTNDPAEKTRLYKAAQDIIWQESPWIPLVVEKLVSAHSKNLTGFWIMPDTGFSFEDADLQ	soluble
VTGPTEESAVATVADWPEGLAAVLRGAADQARAAVVEFSGPEAVGDYLGVSYEDGNAATHRFIAHLPGYQGWQWAVVVASYSGADHATISEVVLVPGPTALLAPDWVPWEQRVRPGDLSPGDLLAPAKDDPRLVPGYTASGDAQVDETAAEIGLGRRWVMSAWGRAQSAQRWHDGDYGPGSAMARSTKRVCRDCGFFLPLAGSLGAMFGVCGNELSADGHVVDRQYGCGAHSDTTAPAGGSTPIYEPYDDGVLDIIEKPAES	soluble
MRTELLSKLYDDFGIDQLPHTQHGVTSDRLGKLYEKYILDIFKDIESLKKYNTNAFPQEKDISSKLLKALNLDLDNIIDVSSSDTDLGRTIAGGSPKTDATIRFTFHNQSSRLVPLNIKHSSKKKVSIAEYDVETICTGVGISDGELKELIRKHQNDQSAKLFTPVQKQRLTELLEPYRERFIRWCVTLRAEKSEGNILHPDLLIRFQVIDREYVDVTIKNIDDYVSDRIAEGSKARKPGFGTGLNWTYASGSKAKKMQFKG	soluble
MSHALRAVFLDHASLDLGDLDMRPLRAAFDELQLHAASQPQEVAARLHDARVAISNKVPIDAQCIAACPELELILISATGTNNIDLAAARERGIVVANCHGYGTPSVAQHTLALLLALATRLPDYQQAVRSGRWQQSSQFCLLDFPIVELEGKTLGLLGHGELGGAVARLAEAFGMRVLLGQLPGRPARADRLPLGELLPRVDALTLHCPLTEDTRGMLGSAELALMKPGAFLVNTARGGLVDEQALADALRGGHLGGAATDVLSVEPPRNGNPLLAPDIPRLIVTPHNAWGSREARQRIVGQLAENAEAWKAGR	not soluble
MDKGLSRLVELLNARGASMEEMVRLLEEERASIVALQAERLQAAVEQKVQVAARMEALDGDCRRVIADEARVRGLGEATLSPLLAGNPSPEKTELAGLQTKLSTLAQEIKGMIADNRRLLETSMVTVGRSLAFFQSRLTVAETYGNSGSMVERSSGGILRKEI	not soluble
MGSDKIHHHHHHVRVDLRHISDEKKLSYSDVLWQYVKQDFLWRINNAGLGNVLWLQKPYFATGEKLAFYYVYGSPGGRAEDNGTPFDVLRNIIIGNAGLNSHSDVVWTNAELSKQAAKVSANEPDASDMQPLIHTWNLSAMCDGGEVPFAVRLERLNEADAGVPMTKNIVFMNSFYGDADVCIFSPESRLGEQLFEIMDKLELVSDMKPYGDAYEILKRYSVSGRQIIDIFKVRAKNKPKTVSMHRLEQVYGYRSYAYMRRRWERYCKRLTRQQMAYANAGWEETLDLILDFLTPVWSAFCNDEIFYDDWMPELGRFLG	not soluble
RMPGLPDIAFTGDGQMTKHEIRALTLCALAPAAGELLWDVGGGSGTVAIEWMRTHPLCRAVTFERSAARVDQIESNAAALGVPSLAVFGDAPAAFEDVPPELSTPDAIFVGGGVTQDGLLDECWSRLRVGGRMVVNAVTAESEALLLQWFSNCGGQLRKFQVYRGEPLGGFTAWRPQLPVAQWSVTKQSKGDAA	not soluble
MGSDKIHHHHHHMFRTVALTGATGFIGRVLIAKLAASGWKVRALARRVPFRQDLPLVEWICGDMNCDSVLCDLVSGTEAVIHCAGAIRGKSWDDFSRTNVTGTRNILRAASGAPSCSRFLFISSLAAREPHLSWYARSKFEAEQLIPGFSGLASTVFRPAAVYGLGDKAMQPFFQAMRYGILLVPGDPGNRFGLIHVDDMVAAIHNWLEAGQPVKGTYEIDDGTSGGYDYTSIAALAEQVLSRPVHCLQIPLGGIRMLARFNLWLAHLLNYAPILTPGKVMEFQHPDWTCDISSLKRELAGWSPVTKLETVLPLLVRM	not soluble
MSLTVSARRADAQRNRELILDAAREQLREPGELKMNAVAKACGIGQGTLYRHFPTREDLLVEVYRHDVEELVAAASDMVSTRSPVEALAGWFERVAAYARVKNHVFAAVEAATWRDLAAHSLGPIGEAVELLLAAGRAEGSMRADVEARDVIVLIGWLSRLDDTELDERGPRLLSVLLDGLRTPQGEGHHHHHH	soluble
MYLDFYGLHAHPFQLTPDPAFFFGANGHTRAKSYLMFGLSQGEGFVVVTGDVGAGKTTLLSHMLRSLSDRSIRVARLSTTQLSADDTARVVARAFGLAEPAHPSKGAWLEAIEVFLTQVRAAGERCVLIVDEVQNMGFAALEELRMLGNLGIDDGHSALQTILVGQPQFRNTLAGPSLDQLRQRIVASCHLGPIEPEEVGHYMRYRLTQAGWRGDPSFEEAVFPAVYRHSGGLPRRINILCSRLLLAGFLQERHDLRAQDVEEVAAELEAEAGEVIGVAGETRAGARLDGRFIDAGSLADLEERVLGIEERLRKVDLVVRRGLLNFSDFVSELNAVWKGRPLEHHHHHH	not soluble
MQVSVRDNNVDQALRALKKKLQREGVFREMKLKQHFEKPSEKKAREKAEAIRRARKLARKKAQREGMLLEHHHHHH	not soluble
SKGIKSEEVKINNIAIEINKATKRDPGNCNLDNHIKPSPDSSLDNQMKLSCESAPDQNFSICSASEVETNPLENTAAASTLLSQAKIDEDRTFPGSAPNQQHSVLSDEASINRKNRDVPPNHSQLKHDSHLEITIPKSLKLKDSEKVDEKQLVIDAGHKRFGAVSCNICGMLYTASNPEDETQHLLFHNQFISAVKYVVLLINHHECGSEEEFITSLFLSMSNFRYTQRSLLPY	soluble
MGSSHHHHHHSSGLVPRGSHMAADNRVQMRTTINNESPLLLSPLYGNDNGNGLWWGNTLKGAWEAIPEDVKPYAAIELHPAKVCKPTSCIPRDTKELREWYVKMLEEAQSLNIPVFLVIMSAGERNTVPPEWLDEQFQKYSVLKGVLNIANYWIYNNQLAPHSAKYLEVCAKYGAHFIWHDHEKWFWETIMNDPTFFEASQKYHKNLVLATKNTPIRDDAGTDSIVSGFWLSGLCDNWGSSTDTWKWWEKHYTNTFETGRARDMRSYASEPESMIAMEMMNVYTGGGTVYNFECAAYTFMTNDVPTPAFTKGIIPFFRHAIQNPAPSKEEVVNRTKAVFWNGEGRISSLNGFYQGLYSNDETMPLYNNGRYHILPVIHEKIDKEKISSIFPNAKILTKNSEELSSKVNYLNSLYPKLYEGDGYAQRVGNSWYIYNSNANINKNQQVMLPMYTNNTKSLSLDLTPHTYAVVKENPNNLHILLNNYRTDKTAMWALSGNFDASKSWKKEELELANWISKNYSINPVDNDFRTTTLTLKGHTGHKPQINISGDKNHYTYTENWDENTHVYTITVNHNGMVEMKI	soluble
MSLNWEHLLSLKRQGDTAKRLRIEQDDTRLGFEVDYDRIIFSAPFRSLQDKTQVIPLSKTDFVHTRLTHSLEVSVVGRSLGRMVGKKLLEKYPHLEQVYGYKFNDFGAIVAAAALAHDIGNPPFGHSGEKAIGEFFKNGYGKRYKDSLTAKEYQDLIKFEGNANGFKVLSQSKPGAQGGLRLSYATLGAFMKYPKESLPHKPSDHIADKKYGFFQSERALFEDVAQELGLLKRSTTDDVSWSRHPLAYLVEAADDICYTIIDFEDGINLGLIPEEYALEYMVKLVGQTIDRNKYNALQETSDRVSYLRALAIGTLINESVDTFMKYEEEILAGTFDQSLIDKSNYQAQITDIINLSIERIYNSREVIEKEIAGYEILSTLLEARCRALDNNDTHYNQLIQQLLAPNDHSEKSLYENLIQICAEVSTMTDGKALRNYKKIKGLDEGHHHHHH	soluble
MDSVIQKRIFVGNIFHNADDCYSELLDRFGKFGDCQDFQFEKHNHFAFIDIRFNDEADFNKLRKSFNNVKFKGNILKVDEAKPNWESTWAVQHAKDLKEDIILNAKMKKKNWQHYKKMENVAKSWKDHKEVIAGRMREAPRKRSQLRNITFRINVNGSLKVYKCYKTKLWGYERNKELNDLVYKFTNNFWKNGYNHIVDRLDYSRAVKTVRFKNGLKQLTVSKDENVCSGEMDSDENMSEEEKEKNNVILNDLLKDFDFDKPMTLNDSDEELLTEQRKGEEEEEEEEEKEVNAPEYENVNKTKDQSTLPQEKPEERKEQDEGDGQEDNEFIPTFTKEIGQGTISNTETLRNLFNPNEAEPVSQFKLIEDSDNDIDHAKDVDVNQLEEEVSKSSDTLGLTSAPVPHVSRDKDNKNFLFFPHLQSPFLVGQTQLSKVRAPGRETMLSNWDEEFWANRGNWTRDMRRKMKDALKHRKRKQSKSGLLL	not soluble
YNPIDNIQNATNRRNTVLANMVDDEKLSQADADSAAGVDMASRLVDTYQGTGDDYRYPSYFDAVIEEATKTYGLSEDEIVKNGY	not soluble
SLNSLVSWQLLLFLCATHFGEPLEKVASVGNSRPTGQQLESLGLLAPGEQSLPCTERKPAATARLSRRGTSMSPPPESSGSPQQPGLSAPHSRQIPAPQGAVMVQREKDLPNYNWNSFGLRFGKREAAPGNHGRSAGR	soluble
MRFFKHYAPSMIAKHISRLFNGKIHIHGIGEFRFKDGQLVAPTEAEREHYKMVKEINSEITRLKMAYLEHHHHHH	not soluble
MGSDKIHHHHHHMFVSPMLLHSIKEPFNDENYITELKFDGIRLILSKFDNQIKLYTRHNNEVTSKFPELMDLDIPDGTVLDGEVIVAASGGAPDFEAVMERFMSKKSAHNIVYCVFDVIYKDGQSIAAKPLTERKTVLNSLELDHPNVFVIEGTQGNGLAYFNLAKEKNLEGIVIKKANSPYEINKRSHNWLKVINYDYTEVLITGYTKKDIKFLLSYPDGTSAGFMEFMPHAERTKFHSMKQVKSESDEYVFIEPILCNVKHRFKTKHGKLRIPSFESWRV	not soluble

From the DeepSol protein solubility set
